Ends that are not written are not given here. * marks the point of attachment. Pyruvoyl = CC(=O)C(=O)*
T1: His6-ElxO (Staphylococcus epidermidis 15X154) (UniProt I6ZQW6)
T1 sequence: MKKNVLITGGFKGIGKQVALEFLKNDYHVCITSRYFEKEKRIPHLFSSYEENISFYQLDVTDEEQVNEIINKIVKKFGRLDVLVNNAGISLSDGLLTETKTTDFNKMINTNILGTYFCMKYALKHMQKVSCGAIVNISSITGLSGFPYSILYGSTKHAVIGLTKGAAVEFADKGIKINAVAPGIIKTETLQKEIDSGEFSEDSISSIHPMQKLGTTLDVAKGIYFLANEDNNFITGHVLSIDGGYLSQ


What follows are molecules tested against T1, His6-ElxO (Staphylococcus epidermidis 15X154).

Molecule	kcat/Km of reduction by His6-ElxO with NADPH (absorbance at 340 nm) [M⁻¹ s⁻¹]
Pyr-A (peptide)	< 0.03
Pyr-AA (peptide)	< 0.03
Pyr-AAI (peptide)	0.06
Pyr-AAIVKBBIKAAKK (peptide)	14.2
Pyruvoyl-AAIV [Pyr-AAIV]	1.13
Pyruvoyl-AAIVK [Pyr-AAIVK]	2.43

From article PMC4136673
